Experimental data reported in article PMC6337079, “Exploring Novel Functions of the Small GTPase Ypt1p under Heat-Shock by Characterizing a Temperature-Sensitive Mutant Yeast Strain, ypt1-G80D” (International Journal of Molecular Sciences, 2019).

Target: the molecule itself
Assay: native gel or EMSA; purified protein (3 μg/μL) incubated at 25 °C or 45 °C for 30 min, native-PAGE, silver-stained; self-association

B1: Ypt1p^G80D (purified bacterially expressed recombinant) (natural protein)
chain: not shown
notes: Ypt1p of Saccharomyces cerevisiae with G80D, from the plasmid pGEX-ypt1^G80D (pGEX-2T, BamHI/HindIII insert); source: E. coli BL21(DE3)pLysS, purified (GSH-agarose, thrombin cleavage, TSK heparin-5PW HPLC, ATP-agarose)
B1: binds.

B2: Ypt1p (purified bacterially expressed recombinant) (natural protein)
chain: not shown
notes: Ypt1p, Rab family small GTPase of Saccharomyces cerevisiae, from the plasmid pGEX-YPT1; monomer printed as 23.5 kDa; also called native Ypt1p; wild-type Ypt1p; source: E. coli BL21(DE3)pLysS, purified (GSH-agarose, thrombin cleavage, TSK heparin-5PW HPLC, ATP-agarose)
B2: binds.
